Laboratory results reported in PMC10897393, “Cellular reprogramming in vivo initiated by SOX4 pioneer factor activity”.

How the values were obtained:
FLAG-SOX4 [1] = target: T1, FLAG-SOX4 (Mus musculus, UniProt Q06831 1-440); experiment: competition; SOX4 displaces pre-bound HNF4A (30 nM); value is the effective SOX4 concentration; EMSA: 10 mM Tris-HCl pH 7.5, 1 mM MgCl2, 1 mM DTT, 50 mM KCl, 0.3 mg/ml BSA, 5% glycerol, RT 30 min; 5% native PAGE in 0.5x TBE; conditions: protein: recombinant; label: Cy5 5'-end; blunt
T1 sequence (Q06831 whole entry): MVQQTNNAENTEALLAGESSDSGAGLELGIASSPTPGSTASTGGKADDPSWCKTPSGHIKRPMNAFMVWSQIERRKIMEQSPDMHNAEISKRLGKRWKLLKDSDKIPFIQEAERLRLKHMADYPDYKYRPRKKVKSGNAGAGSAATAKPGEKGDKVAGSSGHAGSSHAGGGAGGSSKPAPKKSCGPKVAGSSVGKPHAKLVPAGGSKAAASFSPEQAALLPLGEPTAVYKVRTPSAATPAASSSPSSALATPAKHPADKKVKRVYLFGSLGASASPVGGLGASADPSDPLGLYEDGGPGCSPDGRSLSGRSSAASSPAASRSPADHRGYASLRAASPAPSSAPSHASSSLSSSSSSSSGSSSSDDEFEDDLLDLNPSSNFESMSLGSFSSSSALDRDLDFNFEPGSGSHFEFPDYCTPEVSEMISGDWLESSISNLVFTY

MYC-FLAG-HNF4A = target: T2, MYC-FLAG-HNF4A (Mus musculus, UniProt P49698 1-474); experiment: EMSA; EMSA: 10 mM Tris-HCl pH 7.5, 1 mM MgCl2, 1 mM DTT, 50 mM KCl, 0.3 mg/ml BSA, 5% glycerol, RT 30 min; 5% native PAGE in 0.5x TBE; conditions: protein: commercial; tags: MYC-FLAG; chain copies: 2; label: Cy5 5'-end; blunt
T2 sequence: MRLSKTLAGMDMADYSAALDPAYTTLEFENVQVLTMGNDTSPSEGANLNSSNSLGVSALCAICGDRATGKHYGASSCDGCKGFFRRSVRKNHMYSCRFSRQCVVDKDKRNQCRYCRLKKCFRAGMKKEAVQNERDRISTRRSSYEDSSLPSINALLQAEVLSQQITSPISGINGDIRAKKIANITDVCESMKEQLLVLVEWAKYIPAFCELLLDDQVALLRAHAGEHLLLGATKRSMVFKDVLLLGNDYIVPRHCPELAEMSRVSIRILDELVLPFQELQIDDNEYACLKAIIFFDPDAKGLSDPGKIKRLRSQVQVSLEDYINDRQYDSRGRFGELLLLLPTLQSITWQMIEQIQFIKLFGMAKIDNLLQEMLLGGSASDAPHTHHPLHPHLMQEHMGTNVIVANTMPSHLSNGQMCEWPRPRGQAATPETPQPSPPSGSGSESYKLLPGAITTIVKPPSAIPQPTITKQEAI

FLAG-SOX4 [2] = target: T1, FLAG-SOX4; experiment: EMSA; more robust binding than HNF4A; EMSA: 10 mM Tris-HCl pH 7.5, 1 mM MgCl2, 1 mM DTT, 50 mM KCl, 0.3 mg/ml BSA, 5% glycerol, RT 30 min; 5% native PAGE in 0.5x TBE; conditions: protein: recombinant; label: Cy5 5'-end; blunt

Measured: binding result

B1: Cyp2e1 distal enhancer WT (HNF4A motif) (dsDNA)
DNA 1: ATCTCTGGGACAAAGTATAGAGAAG
DNA 2: CTTCTCTATACTTTGTCCCAGAGAT
binds: FLAG-SOX4 [1] | MYC-FLAG-HNF4A | FLAG-SOX4 [2]
